{"source": "paper PMC3956856", "about": "“Interaction of Kinase-Interaction-Motif Protein Tyrosine Phosphatases with the Mitogen-Activated Protein Kinase ERK2” (PLoS ONE, 2014)", "molecules": {"B1": {"name": "DUSP16 MAPK binding domain (residues 5-138, human) (domain or fragment, UniProt Q9BY84 5-138, looked up)", "chain": "MIGTQIVTERLVALLESGTEKVLLIDSRPFVEYNTSHILEAININCSKLMKRRLQQDKVLITELIQHSAKHKVDIDCSQKVVVYDQSSQDVASLSSDCFLTVLLGKLEKSFNSVHLLAGGFAEFSRCFPGLCEG", "notes": "also called DUSP16 MKBD; DUSP16 MKB domain; source: final SEC"}, "B2": {"name": "STEP (residues 213-539, mouse) (domain or fragment, UniProt P54830 213-539, looked up)", "chain": "MGLQERRGSNVSLTLDMCTPGCNEEGFGYLVSPREESAHEYLLSASRVLRAEELHEKALDPFLLQAEFFEIPMNFVDPKEYDIPGLVRKNRYKTILPNPHSRVRLTSPDPEDPLSSYINANYIRGYSGEEKVYIATQGPIVSTVADFWRMVWQERTPIIVMITNIEEMNEKCTEYWPEEQVVHDGVEITVQKVIHTEDYRLRLISLRRGTEERSLKHYWFTSWPDQKTPDRAPPLLHLVREVEEAAQQEGPHCSPIIVHCSAGIGRTGCFIATSICCQQLRREGVVDILKTTCQLRQDRGGMIQTCEQYQFVHHAMSLYEKQLSLQS", "notes": "STEP (PTPN5, striatal enriched protein tyrosine phosphatase), mouse, residues 213-539 (KIM, KIS and catalytic domain); The results loosely call this construct 'full-length STEP'; the construct is residues 213-539; also called STEP_(213-539); PTPN5; source: final SEC"}}, "key": {"[1]": {"biological_target": "HePTP (Homo sapiens) (UniProt P35236)", "sequence (P35236 whole entry)": "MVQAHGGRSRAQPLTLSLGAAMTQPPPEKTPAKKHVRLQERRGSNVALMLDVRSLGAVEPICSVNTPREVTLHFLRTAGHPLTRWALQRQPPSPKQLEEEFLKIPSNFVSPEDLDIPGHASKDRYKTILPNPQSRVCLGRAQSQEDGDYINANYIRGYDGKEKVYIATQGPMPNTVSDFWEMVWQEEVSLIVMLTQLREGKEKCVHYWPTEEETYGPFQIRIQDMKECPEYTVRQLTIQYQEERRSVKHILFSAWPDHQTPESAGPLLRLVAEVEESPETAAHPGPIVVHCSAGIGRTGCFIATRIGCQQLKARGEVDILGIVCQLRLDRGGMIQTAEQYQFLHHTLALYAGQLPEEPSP", "details": "cited from earlier work"}, "[2]": {"biological_target": "PTPSL (Homo sapiens) (UniProt Q15256)", "sequence (Q15256 22-657)": "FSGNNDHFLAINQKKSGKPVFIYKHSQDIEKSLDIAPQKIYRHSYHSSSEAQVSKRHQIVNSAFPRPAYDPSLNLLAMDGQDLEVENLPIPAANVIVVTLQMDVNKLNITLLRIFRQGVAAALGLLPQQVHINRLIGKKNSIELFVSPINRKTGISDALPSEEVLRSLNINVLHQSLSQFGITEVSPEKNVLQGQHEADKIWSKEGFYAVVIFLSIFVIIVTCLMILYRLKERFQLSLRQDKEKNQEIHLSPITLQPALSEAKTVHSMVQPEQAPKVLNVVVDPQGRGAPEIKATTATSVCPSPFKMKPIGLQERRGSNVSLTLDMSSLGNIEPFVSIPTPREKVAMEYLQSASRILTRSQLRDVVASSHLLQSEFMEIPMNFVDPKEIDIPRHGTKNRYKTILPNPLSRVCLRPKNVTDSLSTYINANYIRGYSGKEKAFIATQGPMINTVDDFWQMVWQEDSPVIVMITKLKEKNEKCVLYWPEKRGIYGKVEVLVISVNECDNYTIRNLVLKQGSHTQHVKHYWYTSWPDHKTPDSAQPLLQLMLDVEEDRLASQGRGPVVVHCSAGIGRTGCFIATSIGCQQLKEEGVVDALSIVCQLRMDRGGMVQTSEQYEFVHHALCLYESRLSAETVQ", "details": "cited from earlier work"}, "[3]": {"biological_target": "DUSP16 MKBD MKBD (Homo sapiens) (UniProt Q9BY84)", "test": "ITC", "details": "cited from earlier work"}, "[4]": {"biological_target": "T1, ERK2 (Rattus norvegicus, UniProt P63086)", "T1 construct": "gene Mapk1; made in house", "test": "Isothermal titration calorimetry with ERK2", "assay_type": "binding", "experimental": "The PTPSLKIM peptide (residues 331–348), STEPKIM (residues 213–229) and STEPKIMKIS (residues 213–256) were synthesized, HPLC purified and verified by mass spectrometry (MS) (>98% purity; Biosynthesis, Inc.). Expression and purification of ERK2 and PTPSLKIMKIS (residues 332–373) was carried out as previously described, [15]. PTPSL (residues 332–655, human), STEP (residues 213–539, mouse) and PSChimera (PTPSL residues 332–373 with STEP residues 257–539; gene synthesized by DNA 2.0) were expressed and purified using the protocol previously described in detail for STEPCAT (residues 244–539). The DUSP16 MAPK binding domain (residues 5–138, human) was expressed and purified as previously described. All purified proteins were stored at −80 °C until use at which point they were thawed and exchanged into the appropriate buffer using size exclusion chromatography (SEC; Superdex 75 26/60; GE Healthcare). The final protein buffer was dependent on the experiment performed. For ITC experiments, the final SEC purification was performed in ITC buffer (10 mM Tris pH 7.5, 150 mM NaCl, 0.1 mM EDTA, 0.5 mM TCEP); for SAXS experiments, the final SEC purification was performed in SAXS buffer (50 mM HEPES pH 6.8, 150 mM NaCl, 5 mM dithiothreitol). PTPSLKIM, STEPKIM and STEPKIMKIS peptides were solubilized in ITC buffer prior to ITC measurements.\nITC experiments were performed at 25 °C using a VP-ITC microcalorimeter (Microcal Inc.). Titrant (10 μL per injection) was injected into the sample cell over a period of 20 seconds with a 250 second interval between titrations to allow for complete equilibration and baseline recovery. 28 injections were delivered during each experiment and the solution in the sample cell was stirred at 307 rpm to ensure rapid mixing. To determine the thermodynamic parameters (ΔH, ΔS, ΔG) and binding constants (K) of the ERK2:PTPSLKIM, ERK2:PTPSL, ERK2:STEP and ERK2:PSChimera interactions, PTPSLKIM, PTPSL, STEP and PSChimera were titrated into ERK2. To determine the same parameters for the ERK2:STEPKIM, ERK2:PTPSLKIMKIS and ERK2:STEPKIMKIS interaction, ERK2 was titrated into the peptides. Titrants were chosen based on the amount of purified protein/peptide available for the experiment. For all titrations the concentrations were slightly varied to ensure independence of the Kd from the protein/peptide concentrations. Data were analyzed with a one-site binding model assuming a binding stoichiometry of 1∶1 using Origin 7.0 software. A nonlinear least-squares algorithm and the titrant and sample cell concentrations were used to fit the heat flow per injection to an equilibrium binding equation, providing values of the stoichiometry (n), change in enthalpy (ΔH) and binding constant (K). All data were repeated in triplicate."}, "[5]": {"biological_target": "p38α", "details": "values previously published, ref [14], [15], [17], [18], cited from earlier work", "excerpt": "We used ITC measurements to determine the binding affinity of STEP and PTPSL for unphosphorylated ERK2 ( Table 1; Figure S1). […] This complex has a ∼3-times lower Kd (tighter binding) than the next tightest complex, ERK2:PTPSL, and a nearly 70-fold greater affinity than the weakest complex, p38α:HePTP [15]. Like STEP, PTPSL binds ERK2 more tightly (∼3.5-fold) than p38α. We also tested peptides that include the kinase specificity s ... || We also generated a chimeric protein in which we fused the PTPSLKIMKIS to STEPCAT (PSchimera; Figure 1A ). […] Thus, they only adopt a single conformation when they bind their respective MAPKs. This is different from the MAPK-binding domains (MKBD) of MAPK phosphatases (MKP; dual specificity phosphatases; DUSPs), [26]. In MKPs, the KIM sequence is part of a stable, folded domain and thus adopts a single, ordered conformation in both the unbound and MAPK-bound states, [28]. […] Our ... || (+ 1 further places)"}, "[6]": {"system": "p38α", "details": "NMR; MAPK-binding domain; ref [18]; cited from earlier work", "excerpt": "Although there are a few structural differences between ERK2 and p38α in this region (e.g., the activation loop is six residues longer in ERK2), nearly all residues that that we sh ... || The KIM domains of KIM-PTPs are intrinsically disordered in solution [14], [15]. Thus, they only adopt a single conformation when they bind their respective MAPKs. This is different from the MAPK-binding domains (MKBD) of MAPK phosphatases (MKP; dual specificity phosphatases; DUSPs), [26]. In MKPs, the KIM sequence is part of a stable, folded domain and thus adopts a single, ordered conformation in both the unbound and MAPK-bound states, [28]. […] Our ..."}, "[7]": {"biological_target": "T2, extracellular signal-regulated kinase 2 (ERK2), unphosphorylated (UniProt P63086 1-358)", "T2 construct": "ERK2 (extracellular signal-regulated kinase 2), unphosphorylated; also called MAPK; source: final SEC (Superdex 75 26/60)", "test": "ITC; DUSP16 MKBD and ERK2, which was the titrant is not stated; 25 °C; ITC buffer; one-site model; triplicate", "details": "both partners purified"}, "[8]": {"biological_target": "T1, ERK2", "test": "SAXS of resting-state complexes with ERK2; for Dmax shorter than that of the ERK2:HePTP complex: values in Å; for Dmax, P(r) function: values in Å; for Rg smaller than that of the ERK2:HePTP resting-state complex: values in Å", "experimental": "To form the ERK2:STEP resting-state complex, purified, unphosphorylated ERK2 was incubated in a 1∶1 molar ratio with purified STEP213-539 at room temperature for 30 minutes and purified using SEC (Superdex 75 26/60 [GE Healthcare]; SAXS buffer). Data for the ERK2:STEP complex were recorded on samples at 0.7, 1.2 and 1.7 mg/ml. All samples were prepared within 48 hours of data acquisition and stored on ice at 4 °C. All samples were filtered ([…], Whatman) immediately prior to data collection. All data was recorded at Beamline X9A at the National Synchrotron Light Source (NSLS) using a Dectris Pilatus 300k (3.4 m distance from the sample for SAXS) and a Photonic Science CCD (0.47 m from the sample for WAXS) detector. 20 μl of sample was continuously flowed through a 1 mm diameter capillary and exposed to an X-ray beam for 30 seconds. Normalization for beam intensity, buffer subtraction and merging of the data from both detectors were carried out using PRIMUS [20]. A Guinier approximation, I(q) = I(0)exp(-q^2Rg ^2/3), where a plot of ln[I(q)] and q^2 is linear for q<1.3/Rg (q is the scattering vector q = 4πsin(θ)/λ; λ, wavelength of X-rays and 2θ is the angle between the incident beam and the scattering X-rays) was performed on at least four independent scattering trials and averaged to determine the radius of gyration (Rg). The linearity of the Guinier region and the intensity at zero scattering angle, I(0), were used to validate that all samples were monodisperse in solution. I(0)/c, where c is concentration, was consistent for all measurements. GNOM [21] was used to determine the pair-distribution function, P(r), for the ERK2:STEP resting-state complex using data collected on the 1.7 mg/ml sample. Twenty-four envelopes were generated using GASBOR [22] and were aligned and averaged using the DAMAVER program suite."}, "[9]": {"biological_target": "T1, ERK2", "test": "SAXS of resting-state complexes with ERK2", "details": "ERK2:STEP; 24 GASBOR envelopes, DAMAVER"}, "[10]": {"biological_target": "T2, extracellular signal-regulated kinase 2 …", "test": "ITC; PTPSLKIM, PTPSL, STEP or PSChimera titrated into ERK2 in the cell; 25 °C; 10 mM Tris pH 7.5, 150 mM NaCl, 0.1 mM EDTA, 0.5 mM TCEP; one-site model; triplicate", "details": "both partners purified"}}, "note": "“Also recorded” adds a separate entry of the source. Where two headings read alike, the source gives them in different places.", "data": [{"molecule": "ERK2 (from UniProt P63086)", "values": [{"measurement": "Kd", "setting": "[1]", "value": 370, "unit": "nM"}]}, {"molecule": "p38α (from UniProt Q16539)", "values": [{"measurement": "Kd", "setting": "[2]", "value": 380, "unit": "nM"}, {"measurement": "Kd", "setting": "[3]", "value": 900, "unit": "nM"}]}, {"molecule": "B1", "values": [{"measurement": "weaker binding to ERK2 than to p38α (difference in Kd)", "setting": "[4]; ITC Kd, ERK2 versus p38α", "value": "~1.4", "unit": "fold"}, {"measurement": "affinity for ERK2 compared with p38α (in words)", "setting": "[4]; ITC, ERK2 versus p38α", "value": "binds these MAPKs with similar affinities; also recorded: binds both MAPKs with similar affinities"}, {"measurement": "Kd", "setting": "[5]; listed as DUSP16MKBD-KIM", "value": "890 ± 230", "unit": "nM"}, {"measurement": "Kd", "setting": "[5]", "value": "~900", "unit": "nM"}, {"measurement": "interaction with p38α by NMR (in words)", "setting": "[6]", "value": "interacts at multiple positions with p38α"}, {"measurement": "Kd", "setting": "[7]", "value": 1300, "unit": "nM"}, {"measurement": "dH", "setting": "[7]", "value": -4.8, "unit": "kcal/mol"}]}, {"molecule": "B2", "values": [{"measurement": "relative binding to ERK2 (in words)", "setting": "[4]; ERK2, ITC", "value": "tightest binding complex of all MAPK:KIM-PTP complexes tested; also recorded: more strongly than does HePTP"}, {"measurement": "tighter binding to ERK2 than the STEPKIM peptide", "setting": "[4]; ERK2, ITC, versus STEPKIM", "value": 11, "unit": "times"}, {"measurement": "lower Kd (tighter binding) than the next tightest complex, ERK2:PTPSL", "setting": "[4]; ERK2:STEP versus ERK2:PTPSL", "value": "~3", "unit": "times"}, {"measurement": "tighter binding to ERK2 than to p38α", "setting": "[4]; ITC Kd, ERK2 versus p38α", "value": "~12", "unit": "times"}, {"measurement": "tighter binding to ERK2 than to p38α (fold difference in affinity)", "setting": "[4]; ITC Kd, ERK2 versus p38α", "value": 12, "unit": "fold"}, {"measurement": "affinity for ERK2 compared with p38α (in words)", "setting": "[4]; ITC, ERK2 versus p38α", "value": "higher binding affinity for ERK2 than for p38α; also recorded: bind more strongly to ERK2"}, {"measurement": "TΔS", "setting": "[4]; unphosphorylated ERK2, ITC, 25 °C, 10 mM Tris pH 7.5, 150 mM NaCl, 0.1 mM EDTA, 0.5 mM TCEP, average and standard deviation, triplicate", "value": "-19.7 ± 2.0", "unit": "kcal/mol"}, {"measurement": "Dmax, P(r) function", "setting": "[8]; ERK2:STEP resting-state complex, GNOM, 1.7 mg/ml sample", "value": 95, "unit": "Å"}, {"measurement": "Rg, P(r) function calculation", "setting": "[8]; ERK2:STEP resting-state complex, GNOM, 1.7 mg/ml sample, Q-range 0.013–0.303 Å^−1", "value": 31.1, "unit": "Å"}, {"measurement": "Dmax shorter than that of the ERK2:HePTP complex", "setting": "[8]; ERK2:STEP versus ERK2:HePTP", "value": "~15", "unit": "Å"}, {"measurement": "Rg smaller than that of the ERK2:HePTP resting-state complex", "setting": "[8]; ERK2:STEP versus ERK2:HePTP", "value": "~3.0", "unit": "Å"}, {"measurement": "Rg and Dmax compared with p38α:STEP complex (in words)", "setting": "[8]; ERK2:STEP versus p38α:STEP resting-state complex", "value": "highly similar to those determined for the p38α:STEP resting-state complex"}, {"measurement": "χ^2, structure modeling", "setting": "[8]; ERK2:STEP, 24 GASBOR envelopes", "value": "2.3±0.2"}, {"measurement": "shape of the complex with ERK2 (in words)", "setting": "[8]; resting-state complex, SAXS", "value": "compact; also recorded: more compact, globular complexes"}, {"measurement": "Kd", "setting": "[5]", "value": "577 ± 71", "unit": "nM"}, {"measurement": "NSD, structure modeling", "setting": "[9]", "value": "1.31±0.05"}, {"measurement": "Kd", "setting": "[10]", "value": 48, "unit": "nM"}, {"measurement": "dH", "setting": "[10]", "value": -29.5, "unit": "kcal/mol"}]}]}
